PMC2116055
Blank lines part the entries; values can stand above or below the substance they belong to.

Tests used:
Experiment in all cases: non-reducing SDS-PAGE of immunoprecipitates
[1] = target: recombinant rat fibronectin, A form (with EIIIA only), expressed in WEHI231 cells (rat)
[2] = target: recombinant rat fibronectin, B form (with EIIIB only), expressed in WEHI231 cells (rat)
[3] = target: recombinant rat fibronectin, O form (no EIIIB, EIIIA or V segment), expressed in WEHI231 cells (rat)
[4] = target: recombinant rat fibronectin, V form (with the V segment only), expressed in WEHI231 cells (rat)

stoichiometry N [1]: 2
Substance: recombinant rat fibronectin, A form (with EIIIA only), expressed in WEHI231 cells (natural protein)

stoichiometry N [2]: 2
Substance: recombinant rat fibronectin, B form (with EIIIB only), expressed in WEHI231 cells (natural protein)

percent in the dimeric form [3]: 50%
stoichiometry N [3]: 2
Substance: recombinant rat fibronectin, O form (no EIIIB, EIIIA or V segment), expressed in WEHI231 cells (natural protein)

percent in the dimeric form [4]: 90%
stoichiometry N [4]: 2
Substance: recombinant rat fibronectin, V form (with the V segment only), expressed in WEHI231 cells (natural protein)
